The source of these data is publication PMC12502629, “The NagY antiterminator in Enterococcus faecalis: a novel regulatory mechanism and its impact on cell metabolism” (Microbiology Spectrum, 2025).

As a reminder, the Kd is the free concentration of one partner at which half of the binding sites on the other are occupied at equilibrium, for simple one-to-one binding.

The subject of data set [1] is RNase III (RNase III*);NagY (Enterococcus faecalis V19?;Enterococcus faecalis V19?). The experiment in a line: spectral shift (Monolith X). Conditions: RNase III* pre-incubated with NagY (8.5e-6 M), then RNA titrated; 1 mM MgCl2; ES-T buffer: 10 mM Tris pH 8.0, 40 mM NaCl, 10 mM KCl, 1 mM MgCl2, 0.05% Tween-80; room temperature (5 min pre-incubation); RNase III* stock 5e-8 M ….

Data set [2] deals with T1, NagY antiterminator (Enterococcus faecalis, UniProt Q834W3 1-277).
T1 construct: NagY transcriptional antiterminator of Enterococcus faecalis, encoded by nagY (ef1515); source: E. coli M15 pRep4 pQE70-nagY, purified (HisTrap HP)
T1 sequence (looked up): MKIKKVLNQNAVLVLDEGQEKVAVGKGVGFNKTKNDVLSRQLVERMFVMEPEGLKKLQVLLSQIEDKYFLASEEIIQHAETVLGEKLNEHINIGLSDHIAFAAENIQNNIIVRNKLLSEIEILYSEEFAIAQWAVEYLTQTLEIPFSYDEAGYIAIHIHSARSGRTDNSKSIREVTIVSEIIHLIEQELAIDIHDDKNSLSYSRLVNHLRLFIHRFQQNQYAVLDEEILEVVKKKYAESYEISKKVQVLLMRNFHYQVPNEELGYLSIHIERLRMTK
Nature of the data set: other fluorescence titration; spectral shift (670 nm/650 nm) on Monolith X; RNase III* Cys-labeled at 50·10^-9 M, NagY serially diluted 5.2·10^-10 to 1.7·10^-5 M; ES-T buffer pH 8.0 (10 mM Tris, 40 mM NaCl, 10 mM KCl, 1 mM MgCl2, 0.05% Tween-80); independent triplicates. Conditions: both partners purified.

For 5' nagY RNA, the Kd in data set [1] stood at 0.58 µM.

B1: RNase III (fluorescence-labeled, RNase III*) (enzyme, Enterococcus faecalis, UniProt Q82ZG1 1-230, looked up)
chain: MDNQLTTELKERYGIVFHDVNLLEQAFTHSSYVNEHRYLKLSDNERLEFLGDAVLELIVSQYLYLKFPELPEGKLTKMRAAIVREDSLAKFAKECHFDNYILLGKGEEASGGRTRASLLCDLFEAFLGALYLDQKVGAAKKFIEDVIFPKIDAGAFSHEMDHKTQLQEVLQRKGDVSIEYRLIKEEGPAHDRTFFTEVYMNGELIGLGQGKSKKLAEQDAAERALKSIPQ
modifications: Cys-labeled with Red-Maleimide 2nd Generation dye (degree of labeling 0.1 fluorescent tags per protein unit)
notes: RNase III of Enterococcus faecalis, a 26.2 kDa protein encoded by the rnc gene (ef3097); also called ribonuclease RNase III; rnc gene product; source: E. coli M15 pRep4 pQE30-rnc, purified (HisTrap HP)
For the molecule B1, in data set [2], the Kd came out at 2.5 µM.
